From PMC6971037, “Molecular basis for histidine N3-specific methylation of actin H73 by SETD3” (Cell Discovery, 2020)

T1: SETD3 residues 20–494 (as labelled for the ITC titrations) (human, UniProt Q86TU7 20-494)
T1 construct: also called SETD3_(20–494)
T1 sequence (looked up): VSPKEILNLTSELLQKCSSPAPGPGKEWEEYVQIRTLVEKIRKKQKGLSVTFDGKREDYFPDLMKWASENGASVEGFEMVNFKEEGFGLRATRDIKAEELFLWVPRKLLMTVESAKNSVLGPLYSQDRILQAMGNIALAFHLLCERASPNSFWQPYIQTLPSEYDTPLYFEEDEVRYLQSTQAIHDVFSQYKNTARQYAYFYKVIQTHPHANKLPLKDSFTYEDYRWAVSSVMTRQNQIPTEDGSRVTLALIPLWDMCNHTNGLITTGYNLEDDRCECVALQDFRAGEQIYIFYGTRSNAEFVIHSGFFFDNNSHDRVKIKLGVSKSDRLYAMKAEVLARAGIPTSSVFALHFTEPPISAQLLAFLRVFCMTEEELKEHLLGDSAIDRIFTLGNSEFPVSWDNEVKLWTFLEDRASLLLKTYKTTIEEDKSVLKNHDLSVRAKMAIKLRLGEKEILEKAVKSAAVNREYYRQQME


Assays:
[1] = target: T1, SETD3 residues 20–494 (as labelled for …); assay: ITC; SETD3 titrated with actin peptide in the presence of SFG (sinefungin); conditions: both partners purified
[2] = target: T1, SETD3 residues 20–494 (as labelled for …); assay: ITC; SETD3 titrated with actin peptide in the presence of SAH; conditions: both partners purified

Binder	Kd [1]	Kd [2]
SKRGILTLKYPIEHGIVTNWDD (peptide, UniProt P60709 60-81, looked up, β-actin, residues 60-81; residues 66-81 were built in the structure; also called wild-type actin peptide) [β-actin peptide (60–81)]	5.01 µM	0.15 µM
SKRGILTLKYPIEAGIVTNWDD (peptide, UniProt P60709 60-81, looked up, β-actin peptide with H73A; The limits 60-81 are those of the wild-type peptide; also called H73A actin peptide; H73A mutant peptide) [H73A mutant actin peptide]	1 µM	0.81 µM
